In patent publication US20250388650A1 (ENOSI THERAPEUTICS, published 2025):

Columns and labels:
NRG1 = NRG1 (UniProt Q02297); test: cell-based or functional assay
[1] = target: EN2320 (HER3/Fc homodimer) (human, UniProt P21860 20-640); test: SPR (Biacore 8K), trap on anti-human Fc chip
HF310 (HER3-500) = target: T1, HF310 (HER3-500) (human, UniProt P21860 20-519); test: 125I-HRG cross-linking normalised by anti-HER3 Western blot densitometry
T1 construct: also called HER3-501; HF310T
T1 sequence (P21860 20-519 limits assumed): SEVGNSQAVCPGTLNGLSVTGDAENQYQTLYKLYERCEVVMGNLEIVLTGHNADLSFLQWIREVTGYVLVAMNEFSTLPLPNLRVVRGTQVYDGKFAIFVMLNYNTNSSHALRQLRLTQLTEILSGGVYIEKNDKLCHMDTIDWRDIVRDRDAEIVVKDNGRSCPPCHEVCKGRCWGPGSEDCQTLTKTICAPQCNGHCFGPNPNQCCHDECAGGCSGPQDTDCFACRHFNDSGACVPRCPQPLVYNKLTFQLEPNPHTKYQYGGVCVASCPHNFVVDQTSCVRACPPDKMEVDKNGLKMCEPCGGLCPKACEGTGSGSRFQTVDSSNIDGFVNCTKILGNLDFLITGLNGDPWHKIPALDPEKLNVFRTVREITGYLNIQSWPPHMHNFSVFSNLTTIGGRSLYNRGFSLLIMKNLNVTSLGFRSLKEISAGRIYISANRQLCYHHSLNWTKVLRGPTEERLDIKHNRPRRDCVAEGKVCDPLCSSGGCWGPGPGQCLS
Experimental: Binding was performed by mixing increasing amounts of supernatants (from 2.5 μl-20 μl of supernatant) with 5 nM of ¹²⁵I-HRG in a total volume of 20 μl of Hepes buffer (pH 7.5) at room temperature for 2 hours. 1 mM of the BS₃ crosslinker was added at the end of the binding assay to cross-link the bound molecules. Binding reactions were separated on an SDS-PAGE gel. The protein gel was dried and exposed to a film for 2 and 6 hours.
A parallel Western blot with an anti-HER3 antibody (R&D Systems), followed by densitometry was used to estimate relative HER3-derivative levels and then to normalize ligand binding to each protein based on equal number of binding sites, which are the equivalent to anti-HER3 binding sites.

Sequence of EN2320 (HER3/Fc homodimer) (P21860 20-640 Y265A): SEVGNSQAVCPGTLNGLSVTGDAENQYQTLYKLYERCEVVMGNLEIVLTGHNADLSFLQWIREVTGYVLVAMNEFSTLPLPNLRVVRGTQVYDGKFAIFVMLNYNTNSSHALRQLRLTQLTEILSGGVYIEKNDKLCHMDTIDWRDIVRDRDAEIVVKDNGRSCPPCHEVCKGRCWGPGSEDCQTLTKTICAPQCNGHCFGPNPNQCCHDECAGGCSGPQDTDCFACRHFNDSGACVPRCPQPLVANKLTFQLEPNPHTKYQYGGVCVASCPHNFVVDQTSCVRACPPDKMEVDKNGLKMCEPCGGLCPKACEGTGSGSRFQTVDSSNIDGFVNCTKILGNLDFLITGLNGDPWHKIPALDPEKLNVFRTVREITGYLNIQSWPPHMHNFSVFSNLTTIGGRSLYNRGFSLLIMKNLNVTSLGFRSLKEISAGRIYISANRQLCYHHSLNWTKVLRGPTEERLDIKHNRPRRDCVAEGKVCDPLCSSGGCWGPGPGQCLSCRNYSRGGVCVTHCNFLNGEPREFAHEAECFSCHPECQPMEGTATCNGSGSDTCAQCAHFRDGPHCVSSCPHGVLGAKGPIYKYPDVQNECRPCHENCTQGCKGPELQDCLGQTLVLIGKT

Row | Molecule | Approximate EC50, inhibition of NRG1-β-induced HER3 phosphorylation (MCF7 cells, phosphotyrosine ELISA) (NRG1) | Kd [1] | koff [1] | kon [1] | binding result (HF310 (HER3-500))
1 | HER3^Y246A/Fc (from UniProt P21860 20-640) (Fc fusion) | 1.5 nM |  |  |  | 
2 | NRG2-beta (ligand, UniProt O14511-3 341-405, looked up) HARKCNETAKSYCVNGGVCYYIEGINQLSCKCPNGFFGQRCLEKLPLRLYMPDPKQKHLGFELKE |  | 43.3 nM | 0.0247 s⁻¹ | 571000 M⁻¹ s⁻¹ | 
3 | heregulin (HRG) (ligand, UniProt Q02297-6 177-241, looked up, also: 125I label, site not given here, also called HRG1β1) SHLVKCAEKEKTFCVNGGECFMVKDLSNPSRYLCKCPNEFTGDRCQNYVMASFYKHLGIEFMEAE |  |  |  |  | binds
4 | NRG1 (ligand, UniProt Q02297-6 177-241, looked up, also called NRG1_R&D; NRG1-R&D) SHLVKCAEKEKTFCVNGGECFMVKDLSNPSRYLCKCPNEFTGDRCQNYVMASFYKHLGIEFMEAE |  | 0.389 nM | 0.379 s⁻¹ | 9.76e+08 M⁻¹ s⁻¹ | 
